Laboratory results taken from the RNAGym collection of RNA variant scans (doi:10.1073/pnas.2313332121).
Fewer inactive variants are shown than the library holds.

B1: TPR 5TU (parent)
chain: GGAUCUUCUCGAUCUAACAAAAAAGACAAAUCUGCCACAAAGCUUGAGAGCAUCUUCGGAUGCAGAGGCGGCAGCCUUCGGUGGCGCGAUAGCGCCAACGUUCUCAACUAUGACACGCAAAACGCGUGCUCCGUUGAAUGGAGUUUAUCAUG

Variants of: B1
Experiment: polymerase ribozyme fitness, log enrichment relative to wild type (log ratio); higher = more active; in vitro selection for triplet polymerase activity
Outline: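 Genotype fitness is the logarithm of its enrichment divided by wild-type enrichment, using inverse-variance-weighted averages of replicates. That logarithm is base 2. Enrichment was measured by Illumina sequencing of input and output libraries from one triplicate in vitro selection round, with frozen incubation at −7 °C, on PCR-built, transcribed mutant libraries of each subunit of a heterodimeric triplet polymerase ribozyme, retaining genotypes with ≥10 input reads and ≥1 read per output.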

Point of comparison: GGAUCUUCUCGAUCUAACAAAAAAGACAAAUCUGCCACAACGCUUGAGAGCAUCUUCGGAUGCAGAGGCGGCAGCCUUCGGUGGCGCGUUAGCGUCAACGUUCUCAACUAUGACACGCAAAACAGGUGCUCCGUUGAAUGGAGUUUAUCAUG, “polymerase ribozyme fitness (log ratio)” value -1.75. Against it:
- GGAUCUUCUCGAUCUAACAAAAAAGACAAAUCUGCCACAACGCUUGAGAGCAUCUUAGGAUGCAGAGGCGGCAGCCUUCGGUGGCGCGAUAGCGCUAACGUUCUCAACUAUGACACGCAAAACGCGUGCUCCGCUGAAUGGAGUUUAUCAUG — higher, -0.224
- GGAUCUUCUCGAUCUAACAAAAAAGACAAAUCUGCCACAACGCUUGAGAGCAUCUUGGGAUGCAGAGGCGGCAGCCUUCGGUGGCGCGAUAGCGCCAACGUUCUCAACUAUGACACGCAAAACGCGUGCUCCGUUGAAUGGAGUUUAUCAUG — higher, -1.09
- GGAUCUUCUCGAUCUAACAAAAAAGACAAAUCUGCCACAACGCUUGAGAGCAUCUUAGGAUGCAGAGGCGGCAGCCUUCGGUGGCGCGAUAGCGCUAACGUUCUCAACUAUGACACGCAAAACGCGUGCUCCGUUGAAUGGAGUUUAUCAUG — higher, -0.533
- GGAUCUUCUCGAUCUAACAAAAAAGACAAAUCUGCCACAACGCUUGAGAGCAUCUUUGGAUGCAGAGGCGGCAGCCUUCGGUGGCGCGAUAGCGCUAACGUUCUCAACUAUGACACGCAAAACGCGUGCUCCGUUGAAUGGAGUUUAUCAUG — higher, -0.458
- GGAUCUUCUCGAUCUAACAAAAAAGACAAAUCUGCCACAACGCUUGAGAGCAUCUUCGGGUGCAGAGGCGGCAGCCUUCGGUGGCGCGAUAACGCCAACGUUCUCUACUAUGACACGCAAAACGCGUGCUCCGUUGAAUGGAGUUUAUCAUG — lower, -3.98
- GGAUCUUCUCGAUCUAACAAAAAAGACAAAUCUGCCACAACGCUUGAGAGCAUCUUCGGAUGGCGAGGCGGCAGCCUUCGGUGGCGCGAUAGCGCCAACGUUCUCAACUACGACACGCAAAACGCGUGCUCCGUUGAAUGGAGUUUAUCAUG — lower, ≤ -4.2
- GGAUCUUCUCGAUCUAACAAAAAAGACAAAUCUGCCACAACGCUUGAGAGCAUCUUCGGAUGCAGAGGCGGCAGCCUUCGGUGGCGCGAUAGCGCCAACGUUCUCCACUAUGACACGCAAAACGCGUGCUCCGUUGAAUGGAGUUUAUCAUG — higher, -0.881
- GGAUCUUCUCGAUCUAACAAAAAAGACAAAUCUGCCACAACGCUUGAGAGCAUCUUCGGUUGCAGAGGCGGCAGCCUUCGGUGGCGCGAUGGCGCCAACGUUCUCAACUAUGACACGCAAAACGCGUGCUCCGCUGAAUGGAGUUUAUCAUG — lower, -4.11
- GGAUCUUCUCGAUCUAACAAAAAAGACAAAUCUGCCACAACGCUUGAGAGCGUCUUCGGAUCCAGAGGCGGCAGCCUUCGGUGGCGCGAUAGCGGCAACGUUCUCAACUAUGACACGCAAAACGCGUGCUACGUUGAAUGGUGUUUAUAAUG — lower, ≤ -4.2
- GGAUCUUCUCGAUCUAACAAAAAAGACAAAUCUGCCACAACGCUUGAGAGCAUCUUCGGAUGCAGAGGCGGCAGCCUUCGGUGGCGCGAUCGCGCCAACGUUCUCAACUAUGACACGAAAAACGAGUGCUCCGUUGAAUGGAGUUUAUCUUG — lower, ≤ -4.2
- GGAUCUUCUCGAUCUAACAAAAAAGACAAAUCUGCCACAACGCUUGAGAGCAUCUUUGGAUGCAGAGGCGGCAGCCUUCGGUGGCGCGUUACCGCCAACGUUCUCAACUAUGACAGGCAAAACGAGUGCUCCGUUGAAUGGAGUUUAUCAUG — lower, ≤ -4.2
- GGAUCUUCUCGAUCUAACAAAAAAGACAAAUCUGCCACAACGCUUGAGAGCCUCUUCGGAUGCAGAGGCAGCAGCCUUCGGUGGCGCGAUAGCGCCAACGUUCUCAACUAUGACACGUAAAACGCGUGCUCCGUUGAAUGGAGUUUAUCAUG — lower, ≤ -4.2
- GGAUCUUCUCGAUCUAACAAAAAAGACAAAUCUGCCACAACGCUUGAGAGCAUAUUCGGAUGCAGAGGCGGCAGCCUUCGGUGGCGCGAUCGCGCCAACGUUCGCAACUAUGACACGCAAAACGCGAGCUCCGUUGAAUUGAGUUUAUCACG — lower, ≤ -4.2
- GGAUCUUCUCGAUCUAACAAAAAAGACAAAUCUGCCACAACGCUUGAGAGCAUCUUGGGAUGCAGAGGCGGCAGCCUUCGGUGGCGCGAUAGCGCCAACGUUCUCAACUAUGACACGCAAAACGCGUGCUCCGUUUAAUGGAGUUUAUCAUG — lower, -3.64
- GGAUCUUCUCGAUCUAACAAAAAAGACAAAUCUGCCACAACGCUUGAGAGCAUCUUAGGAUGCAGAGGCGGCAGCCUUCGGUGGCGUGAUAGCGCCAACGUUCUCAACUAUGAGACGCAAAACGCGUGCUCCGUUGAAUGGAGUUUAUCAUG — lower, -3.91
- GGAUCUUCUCGAUCUAACAAAAAAGACAAAUCUGCCACAACGCUUGAGAGCAUCUUCGGAUGCAGAGGCGGCAGCCUUCGGUGGCGCGAUAGCGCCAACGUUCUCAACUAUGACACGCAAAACGCGUGCUCCGUUGGAUGGAGUUUAUUAUG — lower, -2.44
- GGAUCUUCUCGAUCUAACAAAAAAGACAAAUCUGCCACAACGCUUGAGGGCAUCUUCGGAUGCAGAGGCGGCAGCCUUCGGAGGCGCGAUGGCGCCAACGUUCUCAACUAUGACACGCAAAACGCGUGCUCCGUUGAAUGGAGUUUAUCAUG — lower, ≤ -4.2
- GGAUCUUCUCGAUCUAACAAAAAAGACAAAUCUGCCACAACGCUUGAGAGCAUCUUCGGAUGCAGAGGCGGCAGCCUUCGGUGGCGCGUUAGCGCCAACGUUCUCAACUAUGACACGCAAAAGGCGUGCUCCGUUGAAUGGAGUUUAUCAUG — higher, -1.41
- GGAUCUUCUCGAUCUAACAAAAAAGACAAAUCUGCCACAACGCUUGAGAGCAUCUUCGGAUGCAGAGGCGGCAGCCUUCGGUGGCGCGAUAGCGCCAACGUUCUCGACUAUGACACGCAAAACGCGUGCUCCCUUGAAUGGAGUUUUUCAUG — within 0.2 log units, -1.68
- GGAUCUUCUCGAUCUAACAAAAAAGACAAAUCUGCCACAACGCUUGAGAGCAUUUUCGGAUGCAGAGGCGGCAGCCUUCGGUGGCGCGAUAGCGCCAACGUUCUCAACUGUGACACGCAAAACGCGUGCUCCGUUGAAUGGAGUUUAUCAUG — lower, -2.74
- GGAUCUUCUCGAUCUAACAAAAAAGACAAAUCUGCCACAACGCUUGAGAGCAUCUUUGGAUGCAGAGGCGGCAGCCUUCGGUGGCGGGAUAGCGCCAUCGUUCUCAACUAUGACACGCAAAACGCGUGCUCCGUUUAAUGGAGUUUCUCAUG — lower, ≤ -4.2
- GGAUCUUCUCGAUCUAACAAAAAAGACAAAUCUGCCACAACGCUUGAGAGCAUAUUCGGAUGCAGAGGCGGCAGCCUUCGGGGGCGCGAUAGCUCCAACGUUCUCAACUAUGACACGCAAAACGCGUGCUCCGUUGAAUGGAGUUUAUCAUG — lower, -3.5
- GGAUCUUCUCGAUCUAACAAAAAAGACAAAUCUGCCACAACGCUUGAGAGCAUCUUCGGAUGCAGAGGCGGCAGCCUUCGGUGGCGCGAUAGCGCCGACGUUCUCAACUAUGACACGCAAGACGCGUGCUCCGUUGAAUGGAGUUUAUCAUG — higher, -0.295
- GGAUCUUCUCGAUCUAACAAAAAAGACAAAUCUGCCACAACGCUUGAGAGCAUCUUCGGAUGCAGAGGCGGCAGCCUUCGGUGGCGCGAUCGCGCCAACGUUCUCUACUAUGACACGCAAAACGCGUGCUCCGUUGAAUGGAGUUUACCAUG — lower, ≤ -4.2
- GGAUCUUCUCGAUCUAACAAAAAAGACAAAUCUGCCACAACGCUUGAGUGCAACUUCGGCUGCAGAGGCGGCAGCCUUCGGUGGCGCUAUAGCGCCAACGUUCUCAACUAUGACACGCAAAUCGCGUGCUCCGAUGAAUGGAGUUUAUCAUG — lower, ≤ -4.2
- GGAUCUUCUCGAUCUAACAAAAAAGACAAAUCUGCCACAACGCUUGAGAGCAUCUUCGGAUGCAGAGGCGGCAGCCUUCGGUGGCGCGAUAGCGCCAACGUUCUCACCUAUGACACGCAAAACGCGUGCUCCAUUGAAUGGAGGUUAUCAUG — lower, ≤ -4.2
- GGAUCUUCUCGAUCUAACAAAAAAGACAAAUCUGCCACAACGCUUGAGAGCAUCUUCGGAUGCAGAGGCGGCAGCCUUCGGUGGCGCGAUAGCGCCAACGUUCUCAACUAUGACACGCAAAACGCGUGCUCCGUUGCAUGGAGUUUAUCAUG — lower, -3.61
- GGAUCUUCUCGAUCUAACAAAAAAGACAAAUCUGCCACAACGCUUGAGAGCAUCUUCGGAUGCAGAGGCGGCAGCCUUCGGUGGCGCGAUGGCGCCAACGUUCUCAACUAUGACACGCAAAACGCGUGCUCCGUUGAAUGGAGUUUAUCAUG — lower, -2.85
- GGAUCUUCUCGAUCUAACAAAAAAGACAAAUCUGCCACAACGCUUGAGAGCAUCUUCGGAUGCAGAGGCGGCAGCCUUCGGUGGCGCGAUCGCGCCAACGUUCUCAACUAUGACACGCAAAACGCGUGCUCCGUUGAAUGGAGUUUAUCAUG — lower, ≤ -4.2
- GGAUCUUCUCGAUCUAACAAAAAAGACAAAUCUGCCACAACGCUUGAGAGCAUCUUCGGAUGCAGUGGCGGCAGCCUUCGGUGGCGAGAUUGCGCCAACGUUGUCAACUAUGACACGCAAAACGCGUGCUCCGUUGAAUGGUGUCUAUCAUG — lower, ≤ -4.2
- GGAUCUUCUCGAUCUAACAAAAAAGACAAAUCUGCCACAACGCUUGAGAGAAUCUACCGAUGCAGAGGCGGCAGCCUUCGGCGGCGAGAUAGCGCCAACGUUCUCAACUAUGACACGCAAAACGCGUGCUCCGUUUAAUGGAGUUUAUCAUG — lower, ≤ -4.2
- GGAUCUUCUCGAUCUAACAAAAAAGACAAAUCUGCCACAACGUUUGAGAGCAUCUUCGGAUGUAGAGGCGGCAGCCUUCGGUGGCGCUAUAGCGCCAACGUUCUCAACUAUGACACGCAAAACGCGUGCUCCGUUGAAUGGAGUUUAUCAUG — lower, ≤ -4.2
- GGAUCUUCUCGAUCUAACAAAAAAGACAAAUCUGCCACAACGCUUGAGAGCAUCUUCGGAUGCAGAGGCGGCAGCCUUCGGUGGCGCGAUAGCGCCAACGUUCUCAACUAUGACACGCAUAACGCGUGCUCCGUUGAAUGGAGUUUAUCAUG — higher, -0.45
- GGAUCUUCUCGAUCUAACAAAAAAGACAAAUCUGCCACAACGCUUGAGAGCAUCUUCGGAUGCAGAGGCGGCAGCCUUCGGUGGCGCGAUAGCGCCAACGUUCUCAACUAUGUAACGCAAAACGCGUGCUCCGUUGAAUGGAGUUUAUCAUG — lower, ≤ -4.2
- GGAUCUUCUCGAUCUAACAAAAAAGACAAAUCUGCCACAACGCUUGAGAGCAUAUACGGAUGCAGAGGCGGCUGCCUUCGGUGGCGCGUUAGCGCCAACGGUCUCAACUAUGACCCGCAAAACGCGUGGUCCGAUGAAUGGAGUUUAUCAUG — lower, ≤ -4.2
- GGAUCUUCUCGAUCUAACAAAAAAGACAAAUCUGCCACAACGCUUGAGAGCGUCUUCAGAUGCAGAGGCGGCAGCCUUCGGUGGCGCGAUAGCGCCAACGUUCUCAACUAUGACACGCAAAACGCGUGCUCCGUUGAAUGGAGUUUAUCAUG — higher, -1.39
- GGAUCUUCUCGAUCUAACAAAAAAGACAAAUCUGCCACAACGCUUGAGAGCAUCUUCGGGUGCAGAGGCGGCAGACUUCGGUGGCGCGAUAGCGCCAACGUUCUCAACUAUGACACGCAAAACGCGUGCUCCGUUGAUUGUAGUUCACCAUG — lower, ≤ -4.2
